Laboratory results from patent US20090175863A1 (BIOTEST, published 2009).
Values joined by “and” are separate entries in the source; they are usually repeats but may differ in a detail not shown here. Equal entries are not always repeated. Each block holds one binder with its values, some of them ahead of it.

What was measured:
[1] = target: T1, CD138 expressed on the cell surface (OPM-2 cells, MOLP-8 cells) (human, UniProt P18827 23-310); experiment: FACS on CD138+ OPM-2 cells, fluorescence-labeled secondary antibody, mean fluorescence against concentration
T1 construct: whole, on cells; also called syndecan-1; CD138+ OPM-2
T1 sequence (looked up): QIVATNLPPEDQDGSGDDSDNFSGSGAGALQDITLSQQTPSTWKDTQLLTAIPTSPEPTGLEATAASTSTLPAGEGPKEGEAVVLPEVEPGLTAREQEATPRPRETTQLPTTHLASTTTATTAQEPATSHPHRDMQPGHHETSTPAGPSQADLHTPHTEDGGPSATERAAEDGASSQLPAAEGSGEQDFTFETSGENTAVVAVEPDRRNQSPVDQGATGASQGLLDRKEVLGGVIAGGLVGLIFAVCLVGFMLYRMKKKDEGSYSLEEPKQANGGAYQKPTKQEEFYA
Text: The mean fluorescence measured in these experiments was plotted against the antibody concentration.
In FIG. 6, the mean fluorescences as measure for the amount of cell bound antibody is plotted against different antibody or conjugate concentrations.

[2] = target: T2, Soluble CD138 antigen purified from U-266 cell culture supernatant, biotinylated (human, UniProt P18827 23-245, limits assumed, biotinylated with Sulfo-NHS-LC-Biotin on primary amino groups (lysine residues); positions not stated); experiment: SPR (BIACORE C), biotinylated CD138 on SA chip, conjugate as analyte; single experiment
T2 construct: Natural soluble (shed) CD138 captured on a streptavidin sensor chip; also called bCD138; biotinylated CD138
T2 sequence (looked up): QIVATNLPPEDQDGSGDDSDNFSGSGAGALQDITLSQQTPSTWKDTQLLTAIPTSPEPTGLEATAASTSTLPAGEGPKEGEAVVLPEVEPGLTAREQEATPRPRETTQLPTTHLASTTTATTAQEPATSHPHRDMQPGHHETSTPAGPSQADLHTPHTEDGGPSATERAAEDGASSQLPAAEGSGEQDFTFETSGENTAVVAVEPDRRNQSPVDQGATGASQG

[3] = target: T2, Soluble CD138 antigen purified from …; experiment: SPR (BIACORE C), biotinylated CD138 on SA chip, conjugate as analyte; mean of three experiments, +/- SD

B3: B-B4-SPP-DM1 (antibody, V domains shown)
VH: QVQLQQSGSELMMPGASVKISCKATGYTFSNYWIEWVKQRPGHGLEWIGEILPGTGRTIYNEKFKGKATFTADISSNTVQMQLSSLTSEDSAVYYCARRDYYGNFYYAMDYWGQGTSVTVSS
VL: DIQMTQSTSSLSASLGDRVTISCSASQGINNYLNWYQQKPDGTVELLIYYTSTLQSGVPSRFSGSGSGTDYSLTISNLEPEDIGTYYCQQYSKLPRTFGGGTKLEIK
Kd [2]: 2.6 nM and 2.7 nM
Kd [3]: 2.6 nM

B4: nBT062 (antibody, human IgG4, kappa, V domains shown)
VH: B3 VH
VL: DIQMTQSTSSLSASLGDRVTISCSASQGINNYLNWYQQKPDGTVELLIYYTSTLQSGVPSRFSGSGSGTDYSLTISNLEPEDIGTYYCQQYSKLPRTFGGGTKLEIKR
notes: also called cB-B4; chimeric B-B4
EC50 (read off the curve) [1]: ~1 nM

Next, values leading:

EC50 (read off the curve) [1]: ~1 nM
B1: nBT062-SPP-DM1 (antibody, V domains shown)
VH: B3 VH
VL: B4 VL

EC50 (read off the curve) [1]: ~1 nM
B2: nBT062-SMCC-DM1 (antibody, V domains shown)
VH: B3 VH
VL: B4 VL
